The target of experiment [1] is T1, His6-SUMO-K-Ras WT (human, UniProt P01116-2 1-166). Description: FACS; GDP-loaded.
In experiment [2] the target is T1, His6-SUMO-K-Ras WT. Description: FACS; GppNHp-loaded. (In general: A flow cytometer gives signals particle by particle.)
Experiment [3] addresses K-Ras WT (G domain, residues 1-166) (human, UniProt P01116-2 1-166, biotinylated for BLI (site not stated)). Description: BLI; GppNHp-loaded. Background: BLI is a label-free optical method that tracks binding on a fibre tip over time.
The target of experiment [4] is H-Ras WT (G domain, residues 1-166) (UniProt P01112 1-166, biotinylated for BLI (site not stated)). Description: BLI; GppNHp-loaded.
In experiment [5] the target is N-Ras WT (G domain, residues 1-166) (UniProt P01111 1-166, biotinylated for BLI (site not stated)). Description: BLI; GppNHp-loaded.

B1: R11.1.6 expressed on the surface of yeast (designed binder)
chain: ATVKFTHQGEEKQVDISKIKWVIRWGQYIWFKYDEDGGAKGWGYVSEKDAPKELLQMLKKR
On to B1, for which the Kd (in general, a measure of binding affinity in units of concentration) with His6-SUMO-K-Ras WT [1] amounted to 2.8 nM; with His6-SUMO-K-Ras WT [2], 50.3 nM.

B2: SUMO-R11.1.6 fusion protein (designed binder)
chain: B1 chain
Consider B2, for which the figures for the Kd in experiment [3], in experiment [4] and in experiment [5] were 41 nM, 10 nM and 7 nM, respectively.

The values are drawn from article PMC5517481 (2017).
